# Experimental data reported in the RNAGym collection of RNA variant scans (doi:10.1073/pnas.2313332121).
# B1: TPR t1 (parent)
# chain: GACCAAUCUGCCCUCAGAGCUCGAGAACAUCUUCGGAUGCAGAGGAGGCAGGCUUCGGUGGCGCGAUAGCGCCAACGUCCUCAACCUCCAAUGCAUCCCACCACAUGAUGAUGCCUGAAGAGCCUUGGUUUUUUG
# Variants of: B1
# Assay: polymerase ribozyme fitness, log enrichment relative to wild type (log ratio); higher = more active; in vitro selection for triplet polymerase activity
# Procedure, shortened: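 For each subunit of a heterodimeric triplet polymerase ribozyme, a mutant library was built by PCR and transcribed, then taken through a single in vitro selection round in triplicate. Selection involved annealing to a biotinylated primer, the partner subunit and triplets, incubation frozen at −7 °C, gel excision of extended constructs, capture on streptavidin beads and RT-PCR. Genotypes were retained after Illumina sequencing of inputs and outputs only with ≥10 input reads and ≥1 read in each output. Fitness is defined as the logarithm of a genotype's enrichment relative to wild-type enrichment, using inverse-variance-weighted averages across replicates, with the logarithm taken to base 2.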
row,Variant,polymerase ribozyme fitness (log ratio)
1,C70U C88U,-0.847
2,G71C G117U,-3.08
3,G69U C73G A105U,-4.07
4,G69U C86U U109A C115G U126A,-7.39
5,A66G U116C,-2.62
6,G71C U78G,-3.19
7,G69U U78G C102U,-0.192
8,G69A C82G,-3.32
9,G71A U96A U116A,-3.94
10,C70A C80G C82G,-7.42
11,G69U A121C,2.82
12,G69U A121G,2.47
13,C70U U92G A118G,-3.55
14,G69A C102A U112G U132A,-5.6
15,G71C C104A,-3.63
16,G71A C94U U96A,-2.05
17,C70U C94A,-1.13
18,C70U C94G,-0.729
19,G69C U92G G120C,-3.22
20,G69A U116G,-4.55
21,G71A U133G,-0.389
22,G69A U132C,-2.86
23,A66U U125A,-2.11
24,C70U U78A A95U U112G,-2.17

row,Variant,polymerase ribozyme fitness (log ratio)
1,G69U U87A C97A,-2.19
2,A66C U130G U133A,-1.91
3,A66G,-0.466
4,A66U,-0.954
5,G69C U78C A84C,-2.73
6,C70U U81G A84C G122A,-5.65
7,C70U A118U C123A U130C,-0.647
8,G69U U78A A83C C102G,-3.71
9,G69U C124A,1.92
10,G69U C124G,1.3
11,G71A G120U U126C,-1.26
12,C70U C88A C115U,-3.07
13,G71A C115A C123U,-2.76
14,G71A C99U,-3.17
15,G71U A83U,-0.358
16,A68G U106A,-3.22
17,G69A G113A G127C,-3.93
18,G69U C98U,0.082
19,G69C G122U U130C,-1.15
20,G69U C89G,-0.225
21,A66U U106A G117A,-2
22,G69A U78C A84C,-3.57
23,G69A C124A,-0.616
24,C70G A84G,-5.21

row,Variant,polymerase ribozyme fitness (log ratio)
1,A68G A84G,-3.98
2,G69U U129G,-1.02
3,G69A G110C U129A,-7.59
4,U67A C123U,-5.81
5,C70A G117U A121C U130C,-4.1
6,C70G C104U,-3.03
7,G71A C114U G127U,-5.52
8,G71U A84C,-0.343
9,C70A C88U,-1.26
10,G71A G110U,-2.36
11,C70U G77C,-1.78
12,C70U G113U,-2.81
13,C70G U78C C114U,-5.32
14,G71U A100U,-1.2
15,A66G G77A C94U C115A U132A,-0.858
16,G69A U125A,-3.21
17,G69U U126G,-0.571
18,G71U A74U A95U U112G,-3.05
19,A66U A68G C73A C82A,-4.09
20,G69A G117U C124A,-4.19
21,U67C C85U,-4.67
22,C70G A100U G117A A118C,-6.05
23,G69A G93U A111G G122A,-5.44
24,G69C G120U,-0.245

row,Variant,polymerase ribozyme fitness (log ratio)
1,C70U C101A U106C U133A,-0.685
2,A66G U109A,-6.35
3,A68G C73U,-2.42
4,A66U C114A,-3.05
5,G69U C70G U87G G117A,-1.97
6,C70U C102U U132A,-2.52
7,G71A C102A,-2.99
8,G69U C79U,-0.838
9,G71A G120C G122A,-1.43
10,G69U C70A,-1.51
11,G69U C70U,-0.561
12,C70U C114A G128U,-4.2
13,G69A C86G A121U,-1.34
14,A66G C79G G120A,-3.49
15,G71C C82A U112A A118U,-0.627
16,G71C U130G,-1.76
17,G69U U133A,-0.00372
18,A66U U78C C124U,0.592
19,G69A G122U,-2.62
20,C70A A105C G120C,-5.66
21,C70U U109G,-4.21
22,C70U A111G G120C,-4.93
23,G71C U87A C123A,-2.66
24,C70U G128U U133G,-2.39

row,Variant,polymerase ribozyme fitness (log ratio)
1,G69A C85A,-4.3
2,C70U C80U,-0.851
3,C70U G128A,-2.28
4,G71A C82A,-1.72
5,G69U C104G U133G,-5.17
6,C70U U116A,-3.33
7,C70U U96G,-1.09
8,G69A A74G,-5.42
9,C70U C97G,-5.32
10,G71A A74G C88A C97A G117C,-5.77
11,G71A C94G,-2.57
12,G71A C86A A111C G113C,-5.65
13,G71C C94A,-4.08
14,G71C C85U U92C,-4.52
15,G71U A84G U126C U133A,-2.74
16,C70U G117U A118U U130C,-3.8
17,C70G C124G,-0.578
18,C70A U126A,-2.53
19,G71A A91C C114U U133C,-2.15
20,C70A U130C,-2.15
21,C70U C98U,-1.16
22,C70A C124U U133C,0.767
23,G69A A84U C94U,-3.36
24,A68U G117C,-6.92

row,Variant,polymerase ribozyme fitness (log ratio)
1,G69C G113C,-4.05
2,G71A A83U C115U C123G G135U,-4.34
3,A66U C73A C89U,-1.72
4,A66U C94A,-2.12
5,C70G A111G G135U,-4.58
6,G71A A111C,-0.4
7,C70G C98U,-2.99
8,C70G U78C G120A U130G,-2.19
9,C70U A91C C101U U112A U129C,-6.24
10,G69C U116C G120C,-0.894
11,C70U C102A,-1.86
12,G69A C123U,-0.983
13,G69A C123A,-1.81
14,G69A C123G,-0.288
15,G71A A83G,-1.61
16,G69C C89G C123A G135U,-4.06
17,G71C A75G,-0.0431
18,C70U G122A U126A,-3.62
19,C70G U130G,-4.08
20,A66U A84U C89U U112G,-2.3
21,G69U G127A U131A,-2.75
22,A66U C85U G117A,-4.29
23,G69U G93U,-1.01
24,G69U C89G U106A G120C G122C,-1.79

row,Variant,polymerase ribozyme fitness (log ratio)
1,C70G G113U,-4.42
2,G69U A100U,-0.417
3,C70U C104G,-7.05
4,A66C G113C,-3.98
5,G69C C85U,-1.8
6,G69C C85A,-2.84
7,C70A A84U U87A,-2.24
8,G71C G77C C114G U116G,-5.32
9,A66U C123A,0.285
10,G69U C85G C99U A100C G110A,-5.56
11,G69C G77U U87A G117U,-5.49
12,G69U U96G,-0.302
13,C70G U78A,-2.44
14,G71U C73G A95C C124U G128U U129C,-7.5
15,G71U A121G U125A,1.48
16,G69C C101G,-3.84
17,C70G C73A,-4.66
18,G69C G71U C97A A108C U109A,-5.19
19,C70U C104U U130G,-0.752
20,C70U C85U,-0.917
21,C70U C85A,-2.12
22,G69U C114A A121G U130G,0.399
23,C70U U106A,-0.205
